Laboratory results published in patent publication US20160237132A1 (ALKERMES, published 2016).

Biological target: IL-6 (UniProt P05231 30-212, limits assumed)
Test: cell-based or functional assay

Sequence of IL-6 (P05231 30-212 limits assumed): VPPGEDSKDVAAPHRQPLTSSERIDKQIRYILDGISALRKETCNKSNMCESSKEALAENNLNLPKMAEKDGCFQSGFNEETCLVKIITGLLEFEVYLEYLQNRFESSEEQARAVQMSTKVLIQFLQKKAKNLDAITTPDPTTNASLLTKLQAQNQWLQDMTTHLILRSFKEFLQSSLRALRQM

B1: RDB1562 (Fc fusion)
chain: QNQWLQDMTTHLILRSFKEFLQSSLRALRQMSGGSGGGSSERIDKQIRYILDGISALRKETCNKSNMCESSKEALAENNLNLPKMAEKDGCFQSGFNEETCLVKIITGLLEFEVYLEYLQNRFESSEEQARAVQMSTKVLIQFLQKKAKNLDAITTPDPTTNASLLTKLQASELLDPCGYISPESPVVQLHSNFTAVCVLKEKCMDYFHVNANYIVWKTNHFTIPKEQYTIINRTASSVTFTDIASLNIQLTCNILTFGQLEQNVYGITIISGGGGGSASSESSASSDGPHPVITESRASSESSASSDGPHPVITESRSERKCCVECPPCPAPPVAGPSVFLFPPKPKDTLMISRTPEVTCVVVDVSHEDPEVQFNWYVDGVEVHNAKTKPREEQFNSTFRVVSVLTVVHQDWLNGKEYKCKVSNKGLPAPIEKTISKTKGQPREPQVYTLPPSREEMTKNQVSLTCLVKGFYPSDISVEWESNGQPENNYKTTPPMLDSDGSFFLYSKLTVDKSRWQQGNVFSCSVMHEALHNHYTQKSLSLSPGK
  IC50, inhibition of IL-6-dependent differentiation of M1 cells (percent CD32 positive cells): 0.0026 µM
  fold potency against RDB1542, inhibition of IL-6-dependent differentiation of M1 cells: > 400 fold

B2: RDB1542 (Fc fusion)
chain: QNQWLQDMTTHLILRSFKEFLQSSLRALRQMSGGSGGGSSERIDKQIRYILDGISALRKETCNKSNMCESSKEALAENNLNLPKMAEKDGCFQSGFNEETCLVKIITGLLEFEVYLEYLQNRFESSEEQARAVQMSTKVLIQFLQKKAKNLDAITTPDPTTNASLLTKLQASELLDPCGYISPESPVVQLHSNFTAVCVLKEKCMDYFHVNANYIVWKTNHFTIPKEQYTIINRTASSVTFTDIASLNIQLTCNILTFGQLEQNVYGITIISGGSERKCCVECPPCPAPPVAGPSVFLFPPKPKDTLMISRTPEVTCVVVDVSHEDPEVQFNWYVDGVEVHNAKTKPREEQFNSTFRVVSVLTVVHQDWLNGKEYKCKVSNKGLPAPIEKTISKTKGQPREPQVYTLPPSREEMTKNQVSLTCLVKGFYPSDISVEWESNGQPENNYKTTPPMLDSDGSFFLYSKLTVDKSRWQQGNVFSCSVMHEALHNHYTQKSLSLSPGK
  IC50, inhibition of IL-6-dependent differentiation of M1 cells (percent CD32 positive cells): > 1000 µM
